Laboratory results: PMC4678859, “PARN deadenylase is involved in miRNA-dependent degradation of TP53 mRNA in mammalian cells” (Nucleic Acids Research, 2015)

Target: GST-Ago-2 (full-length recombinant Ago-2) (UniProt Q9UKV8 1-859)
Experiment: cell-based or functional assay

Sequence of GST-Ago-2 (full-length recombinant Ago-2) (Q9UKV8 whole entry): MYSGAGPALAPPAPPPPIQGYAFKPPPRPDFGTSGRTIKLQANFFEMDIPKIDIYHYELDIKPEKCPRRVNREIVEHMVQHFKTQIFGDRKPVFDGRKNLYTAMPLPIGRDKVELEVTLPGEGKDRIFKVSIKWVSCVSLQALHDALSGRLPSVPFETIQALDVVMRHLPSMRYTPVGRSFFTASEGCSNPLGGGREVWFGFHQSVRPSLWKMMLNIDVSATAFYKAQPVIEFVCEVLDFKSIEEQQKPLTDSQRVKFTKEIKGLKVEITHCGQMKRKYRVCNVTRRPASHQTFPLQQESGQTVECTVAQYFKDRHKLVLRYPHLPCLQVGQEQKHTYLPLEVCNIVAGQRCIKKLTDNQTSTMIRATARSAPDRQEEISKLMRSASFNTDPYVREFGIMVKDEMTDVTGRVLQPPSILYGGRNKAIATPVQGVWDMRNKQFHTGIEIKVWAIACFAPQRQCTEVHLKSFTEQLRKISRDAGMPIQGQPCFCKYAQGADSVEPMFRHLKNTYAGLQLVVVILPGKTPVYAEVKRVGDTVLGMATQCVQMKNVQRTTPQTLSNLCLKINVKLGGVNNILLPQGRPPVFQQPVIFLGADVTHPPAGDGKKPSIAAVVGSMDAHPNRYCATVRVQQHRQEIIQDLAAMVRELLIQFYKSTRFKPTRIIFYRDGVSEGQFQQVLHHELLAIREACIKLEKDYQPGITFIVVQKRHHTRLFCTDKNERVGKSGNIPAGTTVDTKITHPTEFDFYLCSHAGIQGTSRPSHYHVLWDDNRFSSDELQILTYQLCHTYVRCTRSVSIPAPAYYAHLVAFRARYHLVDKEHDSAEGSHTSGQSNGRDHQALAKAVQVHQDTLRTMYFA

B1: His-PARN (full-length recombinant PARN) (enzyme, UniProt O95453 1-639, looked up)
chain: MEIIRSNFKSNLHKVYQAIEEADFFAIDGEFSGISDGPSVSALTNGFDTPEERYQKLKKHSMDFLLFQFGLCTFKYDYTDSKYITKSFNFYVFPKPFNRSSPDVKFVCQSSSIDFLASQGFDFNKVFRNGIPYLNQEEERQLREQYDEKRSQANGAGALSYVSPNTSKCPVTIPEDQKKFIDQVVEKIEDLLQSEENKNLDLEPCTGFQRKLIYQTLSWKYPKGIHVETLETEKKERYIVISKVDEEERKRREQQKHAKEQEELNDAVGFSRVIHAIANSGKLVIGHNMLLDVMHTVHQFYCPLPADLSEFKEMTTCVFPRLLDTKLMASTQPFKDIINNTSLAELEKRLKETPFNPPKVESAEGFPSYDTASEQLHEAGYDAYITGLCFISMANYLGSFLSPPKIHVSARSKLIEPFFNKLFLMRVMDIPYLNLEGPDLQPKRDHVLHVTFPKEWKTSDLYQLFSAFGNIQISWIDDTSAFVSLSQPEQVKIAVNTSKYAESYRIQTYAEYMGRKQEEKQIKRKWTEDSWKEADSKRLNPQCIPYTLQNHYYRNNSFTAPSTVGKRNLSPSQEEAGLEDGVSGEISDTELEQTDSCAEPLSEGRKKAKKLKRMKKELSPAGSISKNSPATLFEVPDTW
in vitro reconstituted deadenylation of radiolabeled L3(A30) RNA substrate, limiting amounts of His-PARN and increasing amounts of GST-Ago-2: 2.4 fold
